Paper PMC10450579 (2023)
Where “and” joins values, the source holds several entries; their conditions need not be identical. Equal entries are not always repeated.

B1: monobody Mb2 (designed binder)
chain: GSVSSVPTKLEVVAATPTSLLISWDAPAVTVVHYVITYGETGGNSPVQEFTVPGSKSTATISGLKPGVDYTITVYAIDFYWGSYSPISINYRT
B2: Aurora A kinase (AurA), residues 122 to 403 (domain or fragment)
chain: ESKKRQWALEDFEIGRPLGKGKFGNVYLAREKQSKFILALKVLFKAQLEKAGVEHQLRREVEIQSHLRHPNILRLYGYFHDATRVYLILEYAPLGTVYRELQKLSKFDEQRTATYITELANALSYCHSKRVIHRDIKPENLLLGSAGELKIADFGWSVHAPSSRRTTLCGTLDYLPPEMIEGRMHDEKVDLWSLGVLCYEFLVGKPPFEANTYQETYKRISRVEFTFPDFVTEGARDLISRLLKHNPSQRPMLREVLEHPWITANSSKPSNCQNKESASKQS

Legend:
[1] = target: B2; assay: ITC
[2] = target: Mb3; assay: ITC
[3] = target: Mb3; assay: ITC; AurA preincubated with danusertib

For B1, the Kd [1] was 889 nM and 1500 nM.

In the case of B2, the Kd [2] is reported as 180 nM and the Kd [3] is reported as 69 nM.
